The values below are quoted from earlier work in paper PMC9254699 (Biomaterials science, 2021).

In data set [1] the target is T1, TGF-β1 (Homo sapiens, UniProt P01137).
For data set [2], the target named is T1, TGF-β1. The source holds these as a separate data set.

T1 sequence (P01137 279-390 limits assumed, species assumed): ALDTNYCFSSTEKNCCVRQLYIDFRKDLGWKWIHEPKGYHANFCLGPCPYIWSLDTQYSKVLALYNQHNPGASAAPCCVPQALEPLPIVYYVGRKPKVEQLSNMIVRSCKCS

B1: γ-interferon: molecule with activity against TGF-β1, explored preclinically as anti-fibrotic (protein, UniProt P01579 24-161, looked up)
Interferon gamma: QDPYVKEAENLKKYFNAGHSDVADNGTLFLGILKNWKEESDRKIMQSQIVSFYFKLFKNFKDDQSIQKSVETIKEDMNVKFFNSNKKKRDDFEKLTNYSVTDLNVQRKAIHELIQVMAELSPAAKTGKRKRSQMLFRG
With B1, the “activity against TGF-β1, preclinical anti-fibrotic” value with TGF-β1 [1] is listed as “activity against TGF-β1”. In the data set with TGF-β1 [2], the “direct binding to TGF-β1 or its receptors” value is given as “do not directly bind TGF-β1 or its receptors”.

B2: decorin: molecule with activity against TGF-β1, explored preclinically as anti-fibrotic (protein, UniProt P07585 31-359, looked up)
Decorin: DEASGIGPEVPDDRDFEPSLGPVCPFRCQCHLRVVQCSDLGLDKVPKDLPPDTTLLDLQNNKITEIKDGDFKNLKNLHALILVNNKISKVSPGAFTPLVKLERLYLSKNQLKELPEKMPKTLQELRAHENEITKVRKVTFNGLNQMIVIELGTNPLKSSGIENGAFQGMKKLSYIRIADTNITSIPQGLPPSLTELHLDGNKISRVDAASLKGLNNLAKLGLSFNSISAVDNGSLANTPHLRELHLDNNKLTRVPGGLAEHKYIQVVYLHNNNISVVGSSDFCPPGHNTKKASYSGVSLFSNPVQYWEIQPSTFRCVYVRSAIQLGNYK
For the molecule B2, in the data set with TGF-β1 [1], the “activity against TGF-β1, preclinical anti-fibrotic” value was “activity against TGF-β1”. For the same molecule, the “direct binding to TGF-β1 or its receptors” value with TGF-β1 [2] is “do not directly bind TGF-β1 or its receptors”.
